Source: patent US20030143158A1 (DYAX, published 2003)
Ends that are not written are not given here. fluorescein = fluorescein label on the lysine side chain

Key:
[1] = molecular target: T1, fibrin (UniProt P02671 36-629; P02675 45-491; P02679 27-437, limits assumed); experiment: equilibrium binding to dried fibrin plates, free peptide measured by mass spectrometry
T1 construct: Polymerised fibrin formed on 96-well plates from fibrinogen and thrombin; also called dried fibrin; fibrin target
T1 sequence (looked up) 1: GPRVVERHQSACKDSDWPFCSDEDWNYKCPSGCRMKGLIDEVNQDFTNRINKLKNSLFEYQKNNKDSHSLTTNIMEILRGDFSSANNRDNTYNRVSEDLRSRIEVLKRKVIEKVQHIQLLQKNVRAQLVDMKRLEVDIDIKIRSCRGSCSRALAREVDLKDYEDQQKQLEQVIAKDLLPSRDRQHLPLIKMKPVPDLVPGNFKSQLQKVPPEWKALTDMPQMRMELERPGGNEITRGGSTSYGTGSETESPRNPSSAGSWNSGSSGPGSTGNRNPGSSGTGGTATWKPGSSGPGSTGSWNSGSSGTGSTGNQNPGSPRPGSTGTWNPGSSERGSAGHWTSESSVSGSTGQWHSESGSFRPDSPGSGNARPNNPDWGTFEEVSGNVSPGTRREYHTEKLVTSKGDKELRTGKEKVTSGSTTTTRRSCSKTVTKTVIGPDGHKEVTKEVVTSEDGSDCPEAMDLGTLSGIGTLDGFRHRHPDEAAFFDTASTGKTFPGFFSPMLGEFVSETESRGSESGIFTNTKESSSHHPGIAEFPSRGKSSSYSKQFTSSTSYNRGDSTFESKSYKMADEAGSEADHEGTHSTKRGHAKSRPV
T1 sequence (looked up) 2: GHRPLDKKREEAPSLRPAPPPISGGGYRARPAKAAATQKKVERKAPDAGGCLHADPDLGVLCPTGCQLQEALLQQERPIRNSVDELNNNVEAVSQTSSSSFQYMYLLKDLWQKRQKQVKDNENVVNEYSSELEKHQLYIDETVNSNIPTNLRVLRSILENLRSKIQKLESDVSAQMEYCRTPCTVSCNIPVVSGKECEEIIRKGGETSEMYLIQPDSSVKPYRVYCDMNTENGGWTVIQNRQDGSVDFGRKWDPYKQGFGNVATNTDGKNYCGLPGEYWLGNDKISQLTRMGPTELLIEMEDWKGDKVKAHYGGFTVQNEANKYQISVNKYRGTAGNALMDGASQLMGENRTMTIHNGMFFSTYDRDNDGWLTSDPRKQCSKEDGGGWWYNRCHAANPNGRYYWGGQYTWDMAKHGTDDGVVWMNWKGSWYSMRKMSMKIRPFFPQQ
T1 sequence (looked up) 3: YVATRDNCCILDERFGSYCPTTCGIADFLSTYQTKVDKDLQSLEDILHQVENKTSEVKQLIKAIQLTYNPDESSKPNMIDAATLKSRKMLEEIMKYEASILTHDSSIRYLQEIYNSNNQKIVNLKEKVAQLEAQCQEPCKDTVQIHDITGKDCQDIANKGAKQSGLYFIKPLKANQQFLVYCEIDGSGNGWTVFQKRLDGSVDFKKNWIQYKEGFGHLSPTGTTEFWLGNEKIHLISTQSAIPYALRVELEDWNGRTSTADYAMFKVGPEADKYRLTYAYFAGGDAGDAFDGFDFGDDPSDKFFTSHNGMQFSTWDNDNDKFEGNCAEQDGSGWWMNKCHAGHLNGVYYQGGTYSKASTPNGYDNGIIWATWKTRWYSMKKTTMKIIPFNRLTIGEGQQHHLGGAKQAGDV
Procedure: A fibrinogen solution was prepared at 10 mg/ml (or at twice the concentration of fibrin desired) in TBS buffer (50 mM Tris, 150 mM NaCl, pH 7.4). The fibrinogen solution typically contained ˜17 mM citrate. Subsequently, a solution was prepared containing 2 U/ml thrombin, 20 mM CaCl₂, and 5 mM ε-aminocaproic acid in TBS. The fibrinogen solution and thrombin solution were mixed 1:1 in the wells of a 96-well plate, aliquoting 50 μL of each solution in each well (total volume=100 μL). The plates were evaporated to dryness overnight at 37° C. The polypeptide to be tested, dissolved in water, was added to each well at concentrations between 1-200 μM. […] The plate containing the peptide and (rehydrated) dried fibrin was covered and incubated at 37° C. on a shaker table for 2 hours.
The supernatant in each well was removed by pipette and the concentration of the polypeptide was measured by mass spectrometry. The ion current detected at the mass of the peptide was monitored after injection of a sample into the mass spectrometer. The area-under-the-peak was quantified and compared to standards of known concentration. The concentration of peptide in the supernatant is equal to the concentration of free peptide. The concentration of bound peptide was determined by subtracting the concentration of free peptide from the total (starting) concentration. […]

[2] = molecular target: T2, fibrinogen (UniProt P02671 20-629; P02675 31-491; P02679 27-437, limits assumed); experiment: phage ELISA on immobilised fibrinogen
T2 construct: Biotinylated and immobilised through streptavidin for ELISA
T2 sequence (looked up) 1: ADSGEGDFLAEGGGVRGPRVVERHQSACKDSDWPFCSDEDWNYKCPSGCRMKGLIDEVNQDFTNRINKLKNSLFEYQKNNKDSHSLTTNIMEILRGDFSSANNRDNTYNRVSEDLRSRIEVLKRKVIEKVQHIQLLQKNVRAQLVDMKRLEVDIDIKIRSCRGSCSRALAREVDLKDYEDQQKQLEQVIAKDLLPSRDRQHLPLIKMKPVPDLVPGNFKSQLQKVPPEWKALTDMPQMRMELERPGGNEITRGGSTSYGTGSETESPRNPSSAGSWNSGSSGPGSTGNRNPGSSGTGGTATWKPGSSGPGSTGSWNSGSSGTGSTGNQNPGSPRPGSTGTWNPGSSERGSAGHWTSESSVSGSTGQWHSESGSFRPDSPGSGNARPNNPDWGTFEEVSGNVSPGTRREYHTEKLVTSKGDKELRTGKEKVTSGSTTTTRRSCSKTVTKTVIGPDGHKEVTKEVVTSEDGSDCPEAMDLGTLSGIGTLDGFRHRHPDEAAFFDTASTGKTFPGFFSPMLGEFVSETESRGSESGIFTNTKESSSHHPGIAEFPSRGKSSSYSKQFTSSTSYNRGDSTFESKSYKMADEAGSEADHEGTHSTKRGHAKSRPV
T2 sequence (looked up) 2: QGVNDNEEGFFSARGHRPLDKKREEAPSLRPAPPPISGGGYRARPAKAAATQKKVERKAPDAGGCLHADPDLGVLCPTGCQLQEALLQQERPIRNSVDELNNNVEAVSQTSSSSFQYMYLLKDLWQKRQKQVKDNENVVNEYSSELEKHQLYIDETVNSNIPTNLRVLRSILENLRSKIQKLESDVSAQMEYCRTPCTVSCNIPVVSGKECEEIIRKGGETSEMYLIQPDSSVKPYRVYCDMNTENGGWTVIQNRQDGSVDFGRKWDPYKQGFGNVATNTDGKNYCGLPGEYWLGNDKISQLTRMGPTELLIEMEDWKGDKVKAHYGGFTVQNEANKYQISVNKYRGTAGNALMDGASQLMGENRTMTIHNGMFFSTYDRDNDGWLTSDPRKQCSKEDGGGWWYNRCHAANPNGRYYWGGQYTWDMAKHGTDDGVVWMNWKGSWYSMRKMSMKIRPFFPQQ
T2 sequence (looked up) 3: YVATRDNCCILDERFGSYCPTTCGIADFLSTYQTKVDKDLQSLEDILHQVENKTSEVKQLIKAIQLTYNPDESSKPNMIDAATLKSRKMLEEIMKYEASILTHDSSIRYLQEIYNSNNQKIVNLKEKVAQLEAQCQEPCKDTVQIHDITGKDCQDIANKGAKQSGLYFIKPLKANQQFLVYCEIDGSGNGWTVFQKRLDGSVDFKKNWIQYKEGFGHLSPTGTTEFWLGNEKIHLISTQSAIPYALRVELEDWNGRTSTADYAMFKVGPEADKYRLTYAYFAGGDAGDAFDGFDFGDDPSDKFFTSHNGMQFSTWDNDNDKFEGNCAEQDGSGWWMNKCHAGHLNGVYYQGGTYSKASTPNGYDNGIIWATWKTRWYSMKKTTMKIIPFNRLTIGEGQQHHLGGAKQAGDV
Procedure: After five rounds of selection, the eluted phage were propagated and a portion plated to isolate phage plaques arising from individual clones. Ninety such clones were selected randomly, propagated, and tested individually for binding to fibrin in a dried fibrin plate assay. Dried fibrin plates were prepared as described above for the library screening. Phage samples (˜10⁹ phage each) were incubated in the dried fibrin plate wells in binding buffer (50 mM Tris, 150 mM NaCl, 2 mM CaCl₂, 0.05% Tween-20) containing 0.1% HSA. After 1 hour, the plates were washed 5 times with binding buffer. Anti-M13 antibody conjugated to horseradish peroxidase (Pharmacia) was added at 1/5000 dilution in binding buffer to the wells and incubated with the fibrin for 1 hour. The wells were again washed 5 times with binding buffer and the presence of the antibody/phage/fibrin complex was measured with HRP calorimetric reagents (3,3′,5,5′-tetramethylbenzidine (TMB) and […]). A high absorbance at 595 nm (due to oxidized TMB) was indicative of a tight phage/fibrin interaction, and phage clones corresponding to those wells were identified as bearing fibrin-binding moieties.
These fibrin-binding positive clones were subjected to several secondary ELISA assays. These assays followed a similar protocol to that detailed above for the dried fibrin ELISA assay, the only variations being the method of target immobilization and the omission of HSA from binding and wash buffers. A screen against DD(E) acted as a further confirmation of fibrin binding activity. […] Finally, ELISAs to assay binding to immobilized HSA (passively bound to the polystyrene plate) and a target-free microtiter plate were controls to eliminate phage that bound promiscuously or nonspecifically.
The ELISAs were performed as described above.

[3] = molecular target: DD(E), soluble fibrin-derived polypeptide (complex of DD dimer with the central E domain of fibrin) (human) (UniProt P02671); experiment: fluorescence anisotropy (polarization): fluorescein-labeled peptide titrated with DD(E) protein
[4] = molecular target: DD(E), soluble fibrin-derived polypeptide (complex of DD dimer with the central E domain of fibrin) (human) (UniProt P02671); experiment: fluorescence polarization (anisotropy), fluorescein-labeled peptide with DD(E)

Row | Binder | binding result [2] | further results
1 | AEGTGSQWECPYGLCWIQAPGK (not fully specified (bridges); printed as Ala-Glu-Gly-Thr-Gly-Ser-Gln-Trp-Glu-Cys-Pro-Tyr-Gly-Leu-Cys-Trp-Ile-Gln-Ala-Pro-Gly-Lys; cysteine pairing not given here) [synthetic peptide DX-101] | – | Kd [1]: 700 nM
2 | WAPCQEEPWLFCFHG [phage isolate 002-37-D02] | no binding | –
3 | WMMCPMSEWLYCWSA [phage isolate 002-36-A02] | no binding | –
4 | RAPCDYYGTCVEL [phage isolate 002-36-H04] | no binding | –
5 | WKACPGEDWLFCWGS [phage isolate 002-37-H02] | no binding | –
6 | WQPCPWESWTFCWDP [phage isolate 002-37-C11] | no binding | –
7 | WELCSDENWLWCWPH (not fully specified (bridges); cysteine pairing not given here; also: displayed on M13 phage, The two Cys are believed to form a disulfide) [phage isolate 002-35-E01] | no binding | –
8 | Ac-WQPCPWESWTFCWDPGGGK(fluorescein)-NH2 (not fully specified; printed as Ac-WQPCPWESWTFCWDPGGGK(fluorescein)-NH2; cysteine pairing not given here) [synthetic fibrin-binding peptide DX-303] | – | Kd [3]: 500 nM; Kd [4]: 500 nM
9 | Ac-WAPCQEEPWLFCFHGGGGK(fluorescein)-NH2 (not fully specified; printed as Ac-WAPCQEEPWLFCFHGGGGK(fluorescein)-NH2; cysteine pairing not given here) [synthetic fibrin-binding peptide DX-304] | – | Kd [3]: 350 nM; Kd [4]: 400 nM
